# Experimental data taken from IntAct's records for PubMed 19050261.
# B1: Complement factor H (Homo sapiens), P08603 (parent)
# chain: MRLLAKIICLMLWAICVAEDCNELPPRRNTEILTGSWSDQTYPEGTQAIYKCRPGYRSLGNVIMVCRKGEWVALNPLRKCQKRPCGHPGDTPFGTFTLTGGNVFEYGVKAVYTCNEGYQLLGEINYRECDTDGWTNDIPICEVVKCLPVTAPENGKIVSSAMEPDREYHFGQAVRFVCNSGYKIEGDEEMHCSDDGFWSKEKPKCVEISCKSPDVINGSPISQKIIYKENERFQYKCNMGYEYSERGDAVCTESGWRPLPSCEEKSCDNPYIPNGDYSPLRIKHRTGDEITYQCRNGFYPATRGNTAKCTSTGWIPAPRCTLKPCDYPDIKHGGLYHENMRRPYFPVAVGKYYSYYCDEHFETPSGSYWDHIHCTQDGWSPAVPCLRKCYFPYLENGYNQNYGRKFVQGKSIDVACHPGYALPKAQTTVTCMENGWSPTPRCIRVKTCSKSSIDIENGFISESQYTYALKEKAKYQCKLGYVTADGETSGSITCGKDGWSAQPTCIKSCDIPVFMNARTKNDFTWFKLNDTLDYECHDGYESNTGSTTGSIVCGYNGWSDLPICYERECELPKIDVHLVPDRKKDQYKVGEVLKFSCKPGFTIVGPNSVQCYHFGLSPDLPICKEQVQSCGPPPELLNGNVKEKTKEEYGHSEVVEYYCNPRFLMKGPNKIQCVDGEWTTLPVCIVEESTCGDIPELEHGWAQLSSPPYYYGDSVEFNCSESFTMIGHRSITCIHGVWTQLPQCVAIDKLKKCKSSNLIILEEHLKNKKEFDHNSNIRYRCRGKEGWIHTVCINGRWDPEVNCSMAQIQLCPPPPQIPNSHNMTTTLNYRDGEKVSVLCQENYLIQEGEEITCKDGRWQSIPLCVEKIPCSQPPQIEHGTINSSRSSQESYAHGTKLSYTCEGGFRISEENETTCYMGKWSSPPQCEGLPCKSPPEISHGVVAHMSDSYQYGEEVTYKCFEGFGIDGPAIAKCLGEKWSHPPSCIKTDCLSLPSFENAIPMGEKKDVYKAGEQVTYTCATYYKMDGASNVTCINSRWTGRPTCRDTSCVNPPTVQNAYIVSRQMSKYPSGERVRYQCRSPYEMFGDEEVMCLNGNWTEPPQCKDSTGKCGPPPPIDNGDITSFPLSVYAPASSVEYQCQNLYQLEGNKRITCRNGQWSEPPKCLHPCVISREIMENYNIALRWTAKQKLYSRTGESVEFVCKRGYRLSSRSHTLRTTCWDGKLEYPTCAKR
# Variants of: B1
# Details: with ptx3_human PTX3, P26022
# Sequence of ptx3_human PTX3, P26022 (P26022 whole entry): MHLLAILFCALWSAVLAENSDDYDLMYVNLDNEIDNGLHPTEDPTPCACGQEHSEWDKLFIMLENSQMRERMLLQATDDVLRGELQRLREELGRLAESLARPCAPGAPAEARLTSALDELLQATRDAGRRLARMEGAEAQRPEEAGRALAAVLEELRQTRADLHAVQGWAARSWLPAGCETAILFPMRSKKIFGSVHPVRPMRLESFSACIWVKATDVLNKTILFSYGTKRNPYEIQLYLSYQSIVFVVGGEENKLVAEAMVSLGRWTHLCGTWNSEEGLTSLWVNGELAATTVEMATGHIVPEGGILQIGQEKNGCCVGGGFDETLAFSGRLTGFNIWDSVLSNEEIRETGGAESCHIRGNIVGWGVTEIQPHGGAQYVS
row,effect of a mutation on the interaction,Variant
1,with no effect,Y402H
